Signal-to-noise ratio (PSMA adenovirus relative to control adenovirus, liver) data for one substance are collected here from patent US20200347464A1.

The assay concerns the target prostate-specific membrane antigen (PSMA) (human) (UniProt Q04609). Description: in vivo near-infrared optical imaging of mouse liver, 72 h after Ad-Track-PSMA or Ad-Track-Luciferase, 48 h after 15 or 30 ug J591-IR800.

Chain of prostate-specific membrane antigen (PSMA) (human) (Q04609 whole entry): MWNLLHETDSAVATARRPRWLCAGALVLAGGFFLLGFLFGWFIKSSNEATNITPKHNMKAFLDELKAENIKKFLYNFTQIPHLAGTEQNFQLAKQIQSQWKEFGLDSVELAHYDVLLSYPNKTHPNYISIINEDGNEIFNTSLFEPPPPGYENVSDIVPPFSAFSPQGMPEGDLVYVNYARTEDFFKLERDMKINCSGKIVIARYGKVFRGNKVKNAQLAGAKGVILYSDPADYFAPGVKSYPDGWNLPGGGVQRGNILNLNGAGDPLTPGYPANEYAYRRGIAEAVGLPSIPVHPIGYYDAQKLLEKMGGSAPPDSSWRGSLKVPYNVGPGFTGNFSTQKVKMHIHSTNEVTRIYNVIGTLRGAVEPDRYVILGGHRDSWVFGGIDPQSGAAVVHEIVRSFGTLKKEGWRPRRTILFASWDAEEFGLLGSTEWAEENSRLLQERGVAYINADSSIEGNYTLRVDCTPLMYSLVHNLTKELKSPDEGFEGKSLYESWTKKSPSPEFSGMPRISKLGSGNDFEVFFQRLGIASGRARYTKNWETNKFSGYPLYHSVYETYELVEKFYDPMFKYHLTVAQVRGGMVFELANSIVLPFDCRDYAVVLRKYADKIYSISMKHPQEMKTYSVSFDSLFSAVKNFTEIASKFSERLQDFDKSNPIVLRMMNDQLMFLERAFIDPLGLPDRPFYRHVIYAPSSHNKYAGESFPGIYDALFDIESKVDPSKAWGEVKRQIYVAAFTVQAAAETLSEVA

Take J591 antibody conjugated to IRDye 800CW: the signal-to-noise ratio (PSMA adenovirus relative to control adenovirus, liver) was 3.
